# Source: publication PMC7810871
# Target: EsxE-EsxF heterodimer (Mycobacterium tuberculosis) (UniProt P9WNH8)
# Assay: negative-stain electron microscopy
substance,measurement,value
EsxE-EsxF heterodimer (from UniProt P9WNH8 1-90; P9WNH6 1-103) (complex),stoichiometry N,5
